Values belong to the binder of their own block, whether it stands above or below them.
Key:
VEGFC = biological target: T1, VEGFC (UniProt P49767 103-227, limits assumed); assay: binding ELISA on coated VEGFC (Example 12.8), receptor positive control, OD 450 nm
T1 sequence (looked up): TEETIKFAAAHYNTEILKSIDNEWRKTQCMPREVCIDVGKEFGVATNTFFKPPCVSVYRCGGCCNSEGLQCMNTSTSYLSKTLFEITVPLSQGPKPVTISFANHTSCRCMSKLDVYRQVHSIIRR
Experimental: Binding to VEGFB, VEGFC, VEGFD and PIGF is assessed via a solid phase binding ELISA. […] Wells are blocked with a casein solution (1% in PBS). […] As positive controls serial dilutions of the appropriate receptors are taken along and detected with horseradish peroxidase (HRP)-conjugated goat anti-human IgG, Fc specific antibody (Jackson Immuno Research Laboratories Inc., West Grove, Pa., USA) and a subsequent enzymatic reaction in the presence of the substrate TMB (3,3′,5,5′-tetramentylbenzidine) (Pierce, Rockford, Ill., USA).

recombinant mouse DLL4 = biological target: T2, recombinant mouse DLL4 (mouse, UniProt Q9JI71 27-532); assay: binding ELISA on coated recombinant mouse DLL4, OD 405 nm
T2 construct: extracellular domain; also called rmDLL4; mDLL4
Experimental: (§1) In order to determine cross-reactivity to mouse DII4 a binding ELISA is performed. […] Wells are blocked with a casein solution (1% in PBS). VHHs are applied as dilution series and binding is detected using a mouse anti-myc (Roche) and an anti-mouse-AP conjugate (Sigma, St Louis, Mo., USA) (FIG. 7 A-H). As reference, binding to human DII4 is measured.

[1] = biological target: T3, mouse DLL4 overexpressed on cells (mouse, UniProt Q9JI71 27-686); assay: FMAT competition on CHO-mDLL4 cells; blocked ligand Alexa-647 labelled hNotch1-Fc
T3 construct: whole, on cells; also called CHO-mDLL4; CHO-mDII4

human Jagged-1 = biological target: T4, human Jagged-1 (human, UniProt P78504 34-1067, limits assumed); assay: binding ELISA on coated recombinant human Jagged-1, OD 405 nm
T4 construct: also called hJagged-1; hJAG1
How it was run: (§2)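 Plates coated overnight at 4° C with 1 μg/mL ligand, blocked with 1% casein in PBS. VHH dilution series applied; bound VHH detected via mouse anti-myc then anti-mouse-AP conjugate.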

recombinant human DLL4 [2] = biological target: T5, recombinant human DLL4 (human, UniProt Q9NR61 25-522); assay: competition ELISA, biot-hDLL4 to coated hNotch1-Fc
T5 construct: also called rhDLL4; hDLL4
From the text: Residual binding of biotinylated human DII4 is detected using horseradish peroxidase (HRP) conjugated extravidin (Sigma, St. Louis, Mo., USA) (FIG. 3 A-C). Human DII4 is biotinylated as described above.

[3] = biological target: T6, human DLL4 overexpressed on cells (human, UniProt Q9NR61 27-685); assay: competitive FMAT, hNotch1-Fc on CHO-hDLL4
T6 construct: full length human DLL4 on CHO or HEK293 cells; also called CHO-hDLL4; CHO-hDII4

recombinant human DLL4 [4] = biological target: T5, recombinant human DLL4; assay: cell-based or functional assay
recombinant human DLL4 [5] = biological target: T5, recombinant human DLL4; assay: Biacore off-rate, periplasmic extract
recombinant human DLL4 [6] = biological target: T5, recombinant human DLL4; assay: SPR Biacore T100, hDLL4 on chip; heterogeneous binding curve, no 1:1 fit
Experimental: Kinetic analysis to determine the affinity of the DII4-VHH interaction is performed by Surface Plasmon Resonance (SPR) on a Biacore T100 instrument. […] Purified VHHs or Fab fragment are injected for 2 minutes at different concentrations (between 10 and 300 nM) and allowed to dissociate for 20 min at a flow rate of 45 μl/min. Between sample injections, the surfaces are regenerated with 10 mM glycine pH1.5 and 100 mM HCl. HBS-N (Hepes buffer pH7.4) is used as running buffer. If possible, data are evaluated by fitting a 1:1 interaction model (Langmuir binding) onto the binding curves. The affinity constant KD is calculated from resulting association and dissociation rate constants (kₐ) and […].

[7] = biological target: T6, human DLL4 overexpressed on cells; assay: cell-based or functional assay
[8] = biological target: T7, cynomolgus DLL4 overexpressed on cells (cynomolgus, UniProt Q9NR61 27-685 (human entry)); assay: FACS titration on HEK293-cDLL4 cells, MCF
T7 construct: also called cyno DII4; cDLL4
T7 chain: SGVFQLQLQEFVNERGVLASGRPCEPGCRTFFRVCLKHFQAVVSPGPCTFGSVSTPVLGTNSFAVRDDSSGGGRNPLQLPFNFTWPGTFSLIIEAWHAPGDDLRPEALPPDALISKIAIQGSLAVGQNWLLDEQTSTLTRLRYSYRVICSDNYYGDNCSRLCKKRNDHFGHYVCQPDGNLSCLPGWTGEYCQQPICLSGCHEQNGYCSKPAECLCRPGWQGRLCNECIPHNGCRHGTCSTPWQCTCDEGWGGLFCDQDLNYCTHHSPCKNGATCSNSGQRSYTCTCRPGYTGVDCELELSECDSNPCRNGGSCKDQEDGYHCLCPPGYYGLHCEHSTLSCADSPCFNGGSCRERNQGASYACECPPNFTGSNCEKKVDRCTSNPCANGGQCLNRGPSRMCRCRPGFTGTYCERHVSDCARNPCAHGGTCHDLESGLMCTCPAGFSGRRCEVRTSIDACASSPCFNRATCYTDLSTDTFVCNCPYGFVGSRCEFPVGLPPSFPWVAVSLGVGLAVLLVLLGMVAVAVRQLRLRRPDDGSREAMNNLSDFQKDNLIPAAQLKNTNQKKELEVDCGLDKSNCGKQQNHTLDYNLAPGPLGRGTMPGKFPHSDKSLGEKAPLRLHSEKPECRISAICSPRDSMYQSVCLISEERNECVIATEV
How it was run: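 HEK293 cells overexpressing DLL4 (transient or stable) were incubated with VHH titrations for 30 min on ice. After washing, binding was detected with anti-c-myc-Alexa647 by flow cytometry, and the mean MCF was used to calculate EC50.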

[9] = biological target: T6, human DLL4 overexpressed on cells; assay: FACS titration on HEK293-hDLL4 cells, MCF
Experimental: In order to determine the cynomologus cross-reactivity of the VHHs, a FACS binding experiment is performed. Cynomolgus DII4 expressing HEK293 cells (transient or stable transfection) are used for a titration binding experiment of the VHHs. After a 30 minutes incubation on ice, all samples are washed and detection is performed by applying anti-c-myc˜Alexa647 (Santa Cruz Biotechnology, Santa Cruz, Calif., USA). Human and mouse DII4 overexpressing HEK293 cells are taken as reference. The mean MCF value is determined on the FACS Array and used for calculation of the EC₅₀ value (see FIG. 9 A-E).

recombinant human DLL4 [10] = biological target: T5, recombinant human DLL4; assay: binding ELISA, coated rhDLL4
Experimental: as §1

human DLL1 = biological target: T8, human DLL1 (human, UniProt O00548 18-545, limits assumed); assay: binding ELISA on coated recombinant human DLL1, OD 405 nm
T8 construct: also called hDLL1
T8 sequence (looked up): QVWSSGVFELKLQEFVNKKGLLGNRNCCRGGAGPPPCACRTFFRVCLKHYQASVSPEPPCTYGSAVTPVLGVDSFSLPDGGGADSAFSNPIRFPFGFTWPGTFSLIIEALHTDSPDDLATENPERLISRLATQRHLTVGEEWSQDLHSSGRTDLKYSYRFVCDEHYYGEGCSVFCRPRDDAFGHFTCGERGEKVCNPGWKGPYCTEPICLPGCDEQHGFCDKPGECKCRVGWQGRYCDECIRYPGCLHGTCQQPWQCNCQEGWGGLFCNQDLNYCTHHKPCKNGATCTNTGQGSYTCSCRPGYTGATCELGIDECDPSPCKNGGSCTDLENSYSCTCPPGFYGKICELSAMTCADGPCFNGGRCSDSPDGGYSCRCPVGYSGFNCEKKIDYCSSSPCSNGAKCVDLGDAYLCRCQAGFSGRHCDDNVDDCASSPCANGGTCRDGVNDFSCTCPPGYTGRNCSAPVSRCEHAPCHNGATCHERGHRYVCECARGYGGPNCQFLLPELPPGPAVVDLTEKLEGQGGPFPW
How it was run: as §2

[11] = biological target: T6, human DLL4 overexpressed on cells; assay: FMAT, labelled hNotch1-Fc on CHO-hDLL4, periplasmic extract
From the text: (§3) All calculations are based on the FL1_total signal which comprises the average of the fluorescence per well times the number of counts per well.

[12] = biological target: T3, mouse DLL4 overexpressed on cells; assay: FMAT, labelled hNotch1-Fc on CHO-mDLL4, periplasmic extract
From the text: as §3
Target sequence in this assay (Q9JI71 27-686): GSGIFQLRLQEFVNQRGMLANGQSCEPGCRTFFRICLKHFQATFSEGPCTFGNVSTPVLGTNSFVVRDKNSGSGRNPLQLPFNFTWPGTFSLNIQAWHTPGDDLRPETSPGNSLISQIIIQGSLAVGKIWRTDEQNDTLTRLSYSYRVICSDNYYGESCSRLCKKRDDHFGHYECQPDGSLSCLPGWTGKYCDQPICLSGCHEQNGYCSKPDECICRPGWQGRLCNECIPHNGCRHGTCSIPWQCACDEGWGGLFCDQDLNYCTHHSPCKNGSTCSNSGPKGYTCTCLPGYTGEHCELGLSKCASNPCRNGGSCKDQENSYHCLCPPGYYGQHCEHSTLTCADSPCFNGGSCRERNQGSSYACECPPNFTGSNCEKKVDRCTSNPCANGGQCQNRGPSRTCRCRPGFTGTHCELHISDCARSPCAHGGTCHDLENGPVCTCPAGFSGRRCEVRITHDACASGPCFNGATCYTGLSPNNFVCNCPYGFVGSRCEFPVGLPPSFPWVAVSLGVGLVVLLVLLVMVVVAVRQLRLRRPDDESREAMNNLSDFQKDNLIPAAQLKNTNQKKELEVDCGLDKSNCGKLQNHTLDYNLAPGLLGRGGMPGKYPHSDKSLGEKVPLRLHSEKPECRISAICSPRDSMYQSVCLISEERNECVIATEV

[13] = biological target: T9, human DLL4 expressed on cells (CHO-hDLL4; HEK293-hDLL4) (human, UniProt Q9NR61 27-685); assay: FMAT competition on CHO-hDLL4 cells; unlabelled rhNotch1-Fc competes with Alexa-647 labelled hNotch1-Fc
T9 construct: full length human DLL4 overexpressed on CHO cells (FMAT, FACS) or HEK293 cells (reporter assay)

[14] = biological target: T10, mouse DLL4 expressed on CHO cells (mouse, UniProt Q9JI71 27-686); assay: FMAT competition on CHO-mDLL4 cells; unlabelled rhNotch1-Fc competes with Alexa-647 labelled hNotch1-Fc
T10 construct: whole, on cells; also called mDLL4; CHO-mDLL4

T2 sequence (Q9JI71 27-532): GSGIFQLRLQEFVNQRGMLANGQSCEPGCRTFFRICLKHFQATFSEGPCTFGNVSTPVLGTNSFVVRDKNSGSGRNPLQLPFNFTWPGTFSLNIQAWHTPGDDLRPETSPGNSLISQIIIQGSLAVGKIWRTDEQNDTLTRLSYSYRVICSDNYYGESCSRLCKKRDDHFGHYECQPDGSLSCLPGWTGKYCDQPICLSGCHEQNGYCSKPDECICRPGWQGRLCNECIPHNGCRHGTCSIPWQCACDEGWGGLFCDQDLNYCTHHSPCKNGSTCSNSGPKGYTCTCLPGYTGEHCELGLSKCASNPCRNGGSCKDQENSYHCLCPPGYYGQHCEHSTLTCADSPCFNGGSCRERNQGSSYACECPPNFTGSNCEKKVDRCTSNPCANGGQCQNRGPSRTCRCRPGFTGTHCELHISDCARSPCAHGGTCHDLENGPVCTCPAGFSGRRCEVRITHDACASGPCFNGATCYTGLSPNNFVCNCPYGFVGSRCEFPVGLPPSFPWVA

EC50 (read off the curve) (VEGFC): ~4 nM
B1: human VEGFR2-Fc chimera (Fc fusion, UniProt P35968 20-764, looked up)
chain: ASVGLPSVSLDLPRLSIQKDILTIKANTTLQITCRGQRDLDWLWPNNQSGSEQRVEVTECSDGLFCKTLTIPKVIGNDTGAYKCFYRETDLASVIYVYVQDYRSPFIASVSDQHGVVYITENKNKTVVIPCLGSISNLNVSLCARYPEKRFVPDGNRISWDSKKGFTIPSYMISYAGMVFCEAKINDESYQSIMYIVVVVGYRIYDVVLSPSHGIELSVGEKLVLNCTARTELNVGIDFNWEYPSSKHQHKKLVNRDLKTQSGSEMKKFLSTLTIDGVTRSDQGLYTCAASSGLMTKKNSTFVRVHEKPFVAFGSGMESLVEATVGERVRIPAKYLGYPPPEIKWYKNGIPLESNHTIKAGHVLTIMEVSERDTGNYTVILTNPISKEKQSHVVSLVVYVPPQIGEKSLISPVDSYQYGTTQTLTCTVYAIPPPHHIHWYWQLEEECANEPSQAVSVTNPYPCEEWRSVEDFQGGNKIEVNKNQFALIEGKNKTVSTLVIQAANVSALYKCEAVNKVGRGERVISFHVTRGPEITLQPDMQPTEQESVSLWCTADRSTFENLTWYKLGPQPLPIHVGELPTPVCKNLDTLWKLNATMFSNSTNDILIMELKNASLQDQGDYVCLAQDRKTKKRHCVVRQLTVLERVAPTITGNLENQTTSIGESIEVSCTASGNPPPQIMWFKDNETLVEDSGIVLKDGNRNLTIRRVRKEDEGLYTCQACSVLGCAKVEAFFIIEGAQEKTNLE
notes: also called hVEGFR2-Fc; VEGFR2-huFc; not shown: human Fc part of the bought chimera; not described

binding result (recombinant mouse DLL4): no binding (tested: 5e-7 M) | IC50 (read off the curve) [1]: ~60 nM | binding result (human Jagged-1): no binding (tested: 5e-7 M) | IC50 (recombinant human DLL4 [2]): 1.1 nM | IC50 [3]: 2.5 nM | IC50 (nM) (experiment 1), DLL4 proliferation assay (HUVEC) (recombinant human DLL4 [4]): 103 nM | IC50 (nM) (experiment 2), DLL4 proliferation assay (HUVEC) (recombinant human DLL4 [4]): 32 nM | koff (recombinant human DLL4 [5]): 0.0012 s⁻¹ | Kd (recombinant human DLL4 [6]): 4 to 24 nM | koff (recombinant human DLL4 [6]): 0.0006 to 0.003 s⁻¹ | kon (recombinant human DLL4 [6]): 120000 to 150000 M⁻¹ s⁻¹ | IC50, DLL4/Notch1 reporter assay [7]: 964 nM | EC50 (read off the curve) [8]: ~5 nM | EC50 (read off the curve) [9]: ~4 nM | EC50 (recombinant human DLL4 [10]): 8.4 nM | binding result (human DLL1): no binding (tested: 5e-7 M) | % inh [11]: 94% | % inh [12]: 86%
B2: DLLBII104G01 (VHH)
VHH: EVQLVESGGGLVQAGGSLRLSCAASGFTFDDYAIGWFRQAPGKEREGVSCISSSDGSTYYADSVKGRFTISSDNAKNTVYLQMNSLKPEDTAVYYCATAWCDSSWYRSFVGYWGQGTQVTVSS
notes: also called 104G1

IC50 (read off the curve) [13]: ~4 nM | IC50 (read off the curve) [14]: ~2 nM
B3: human Notch1/Fc chimera (R&D Systems) (Fc fusion, UniProt P46531 19-526, looked up, not shown: a dimerising Fc or GST)
chain: ARGPRCSQPGETCLNGGKCEAANGTEACVCGGAFVGPRCQDPNPCLSTPCKNAGTCHVVDRRGVADYACSCALGFSGPLCLTPLDNACLTNPCRNGGTCDLLTLTEYKCRCPPGWSGKSCQQADPCASNPCANGGQCLPFEASYICHCPPSFHGPTCRQDVNECGQKPGLCRHGGTCHNEVGSYRCVCRATHTGPNCERPYVPCSPSPCQNGGTCRPTGDVTHECACLPGFTGQNCEENIDDCPGNNCKNGGACVDGVNTYNCRCPPEWTGQYCTEDVDECQLMPNACQNGGTCHNTHGGYNCVCVNGWTGEDCSENIDDCASAACFHGATCHDRVASFYCECPHGRTGLLCHLNDACISNPCNEGSNCDTNPVNGKAICTCPSGYTGPACSQDVDECSLGANPCEHAGKCINTLGSFECQCLQGYTGPRCEIDVNECVSNPCQNDATCLDQIGEFQCICMPGYEGVHCEVNTDECASSPCLHNGRCLDKINEFQCECPTGFTGHLCQ
modifications: Alexa-647 labelled in the FMAT assay
notes: also called hNotch1-Fc; rhNotch1/Fc
